Measured values as given in patent US7700101B2, “Reagents and method for modulating Dkk-mediated interactions” (Wyeth, priority 2001, dated 2010).

B1: D11: Dkk-1 fragment clone F3/R2: Val 139-Cys245 (protein)
chain: VSSDQNHFRGEIEETITESFGNDHSTLDGYSRRTTLSSKMYHTKGQEGSVCLRSSDCASGLCCARHFWSKICKPVLKEGQVCTKHRRKGSHGLEIFQRCYCGEGLSC
modifications: left off: large carriers
B2: Wnt5a: murine Wnt5a cDNA clone, RNA injected (protein, UniProt P22725 62-380, looked up)
Protein Wnt-5a: IIGAQPLCSQLAGLSQGQKKLCHLYQDHMQYIGEGAKTGIKECQYQFRHRRWNCSTVDNTSVFGRVMQIGSRETAFTYAVSAAGVVNAMSRACREGELSTCGCSRAARPKDLPRDWLWGGCGDNIDYGYRFAKEFVDARERERIHAKGSYESARILMNLHNNEAGRRTVYNLADVACKCHGVSGSCSLKTCWLQLADFRKVGDALKEKYDSAAAMRLNSRGKLVQVNSRFNSPTTQDLVYIDPSPDYCVRNESTGSLGTQGRLCNKTSEGMDGCELMCCGRGYDQFKTVQTERCHCKFHWCCYVKCKKCTEIVDQFVCK

What was measured:
[1] = test system: Zmax1/LRP5 ligand binding domain (LBD) baits LBD1 and LBD4; experiment: Yeast two hybrid minimum interaction domain mapping of Dkk-1 with LRP5; settings: FIG. 6
From the text: Further analysis of yeast two hybrid (Y2H) interacting proteins includes the dissection of protein motifs responsible for the interaction. Sequence alignment of multiple clones identified in the Y2H screens can help identify the smallest common region responsible for the interaction. In the absence of appropriate clones, deletion mapping of interacting domains is necessary.
PCR primers containing restriction sites suitable for cloning are designed to cover multiple sub-domains of the protein of interest (bait or prey). The methods involved in cloning, sequencing, yeast transformation, mating, and scoring of interactions are readily performed by one of ordinary skill in the art of molecular biology and genetic engineering.
The primers, which are presented in 5′ to 3′ orientation, were as follows: […]
PCR was performed using PfuTurbo® polymerase (Stratagene). The PCR products were gel purified, digested with SaflI/NotI and ligated to pPC86 (Gibco/BRL) which had been linearized with SalI/NotI.
These clones were transformed into yeast and mated with each of three yeast strains containing pDBleu (Gibco/BRL), pDBleuLBD1, and pDBleuLBD4. Positive interactions were detected by growth of the hybrids on appropriate selective media.

[2] = test system: Wnt pathway; experiment: Xenopus embryo screening for duplicated body axis; assay type: in vivo; settings: RNA injected into ventral blastomere; LRP5 500 pg, Wnt5a 20 pg
From the text: Modification of the Wnt signaling pathway can be visualized by examining the embryos for a dorsalization phenotype (duplicated body axis) after RNA injection into the ventral blastomere at the 4- or 8-cell stage. On the molecular level, phenotypes can be analyzed by looking for expression of various marker genes in stage 10.5 embryos. Such markers would include general endoderm, mesoderm, and ectoderm markers as well as a variety of tissue-specific transcripts.
mRNA for microinjection into Xenopus embryos is generated by in vitro transcription using the CDNA constructs in the pCS2^+ vector described above as template. RNA is synthesized using the Ambion mMessage mMachine high yield capped RNA transcription kit (Cat. #1340) following the manufacturer's specifications for the Sp6 polymerase reactions. RNA products were brought up to a final volume of 50 μl in sterile, glass-distilled water and purified over Quick Spin-Columns for Radiolabelled RNA Purification G50-Sephadex (Roche, Cat. #1274015) following the manufacturer's specifications. The resulting eluate was finally extracted with phenol:chloroform:isoamyl alcohol and isopropanol precipitated using standard protocols (Sambrook et al., 1989). Final RNA volumes were approximately 50 μl. RNA concentration was determined by absorbance values at 260 nm and 280 nm. […]

Sequence of Zmax1/LRP5 ligand binding domain (LBD) baits LBD1 and LBD4 (as listed by the source): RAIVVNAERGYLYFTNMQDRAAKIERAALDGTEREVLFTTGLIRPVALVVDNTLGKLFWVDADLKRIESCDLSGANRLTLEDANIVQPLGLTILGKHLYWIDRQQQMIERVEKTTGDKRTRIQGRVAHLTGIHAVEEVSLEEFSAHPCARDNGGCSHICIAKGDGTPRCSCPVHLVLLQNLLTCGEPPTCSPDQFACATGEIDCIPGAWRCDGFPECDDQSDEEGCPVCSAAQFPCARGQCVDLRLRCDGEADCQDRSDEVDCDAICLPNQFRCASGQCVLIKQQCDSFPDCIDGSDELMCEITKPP

| Molecule | growth of diploids on selective media (interaction with LRP5 LBD baits) [1] | induction of axis duplication [2] |
| --- | --- | --- |
| B1 | no growth was observed |  |
| B2 |  | could not induce axis duplication |
